One test has as its target HLA-A*0201 (Homo sapiens, UniProt P04439, D140Y/D185E/D98H/E176V/E277Q/G131W/G231S/I119V/I121R/I166T/I218V/L300P/L318F/N151K/N90K/P208A/P217A/Q86G/Q94H/R138H/R169H/T345S). In words: purified HLA class I binding assay, A*0201. Conditions: for A*0201 binding (HIV A02 Super Motif Peptides with Binding Information): purified HLA-A*0201.
The next test has as its target T1, HLA-DRB1*0701 (DR7) (Homo sapiens, UniProt P01903+P01911, A100R/A102G/A103Q/D57E/D86V/E43K/F76Y/K127E/L162R/M171V/P40G/Q125H/Q99D/R33Q/R42Y/R54Q/S133A/S66F/T210M/V115G/Y107V/Y59L/Y89S).
T1 construct: endogenous in cells; host or cells: Pitout
In words: biochemical. It counts as binding.

The target in the next test is T2, HLA-DRB1*0802 (DR8w2) (Homo sapiens, UniProt P01903+P01911, A100R/A103L/A169T/F76Y/H45Y/I96F/K41T/L162R/M171V/P40S/Q125H/Q178H/Q39Y/Q99D/R218S/R42G/S66Y/V115G/W38E).
T2 construct: endogenous in cells
In words: biochemical. Type of test: binding.

The target in a further test is HLA-DRB1*1302 (DR6w19) (Homo sapiens, UniProt P01903+P01911, A100E/A169T/K41T/L162R/M171V/P40S/Q125H/Q178H/Q39Y/Q99D/R42S/S66N/T262R/V115G/W38E/Y61H). In words: purified HLA class II binding assay, DRB1*1302 (DR6w19). Conditions: Table XXb, HIV DR 3a motif peptides.
The target in the next test is T3, HLA-DRB1*0301 (DR3) (Homo sapiens, UniProt P01903+P01911, A100K/A102G/A103R/A169T/F55Y/I96L/K41T/L162R/M171V/P40S/Q125H/Q178H/Q39Y/R42S/S66N/T106N/T262R/W38E/Y61H).
T3 construct: endogenous in cells; host or cells: MAT
In words: purified HLA class II binding assay, DRB1*0301 (DR3), pH 4.5. Conditions: for DR3 binding information: Table XXb, HIV DR 3a motif peptides.

Another test has as its target HLA-A*0202 (Homo sapiens, UniProt P04439, D140Y/D185E/D98H/E176V/E277Q/G131W/G231S/I119L/I121R/I166T/I218V/L180W/L300P/L318F/N151K/N90K/P208A/P217A/Q67R/Q86G/Q94H/R138H/R169H/T345S). In words: purified HLA class I binding assay, A*0202.
Another test concerns the target HLA-A*0203 (Homo sapiens, UniProt P04439, A173T/D140Y/D185E/D98H/E277Q/G131W/G231S/I119V/I121R/I166T/I218V/L180W/L300P/L318F/N151K/N90K/P208A/P217A/Q86G/Q94H/R138H/R169H/T345S). In words: purified HLA class I binding assay, A*0203.
The target in a further test is HLA-A*0206 (Homo sapiens, UniProt P04439, D140Y/D185E/D98H/E176V/E277Q/F33Y/G131W/G231S/I119V/I121R/I166T/I218V/L300P/L318F/N151K/N90K/P208A/P217A/Q86G/Q94H/R138H/R169H/T345S). In words: purified HLA class I binding assay, A*0206.
Another test addresses T4, HLA-A*0301 (Homo sapiens, UniProt P04439).
T4 construct: endogenous in cells; host or cells: GM3107
In words: purified HLA class I binding assay, A*0301. The following applies: HIV A03 motif peptides, Table XVI; binding value to purified HLA-A*0301, unit not given.

[1] abbreviates: Table VIII, HIV A02 supermotif peptides, unit not given.
[2] abbreviates: HIV A02 super motif peptides, Table VIII, unit not given.
Setting [3] is: HIV A02 Super Motif Peptides with Binding Information, Table VIII, unit not given.

By IC50 is commonly meant the point on the concentration scale where inhibition reaches its midpoint. Higher therefore signals a need for much substance.

No end group written: not given here.

T3 sequence (P01903 26-254 partner, other chains not shown): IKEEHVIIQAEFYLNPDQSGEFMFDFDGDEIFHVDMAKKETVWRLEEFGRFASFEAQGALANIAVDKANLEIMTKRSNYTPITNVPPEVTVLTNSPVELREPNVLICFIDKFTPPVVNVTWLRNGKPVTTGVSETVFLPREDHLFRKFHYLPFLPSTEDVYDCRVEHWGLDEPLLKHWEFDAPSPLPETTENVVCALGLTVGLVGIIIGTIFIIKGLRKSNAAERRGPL

For the sequence IVASCDKCQL, in the test with HLA-A*0201 (setting [1]), the “A*0201 (binding information)” value was found to be 0.0006.

Turning to IVTDSQYAL, the “A*0201 (binding information)” value at HLA-A*0201 (setting [2]) was determined as 0.0024. This sequence had a DR7 binding information on HLA-DRB1*0701 (DR7) of −0.0014. This sequence showed a DR8w2 binding information at HLA-DRB1*0802 (DR8w2) of −0.0009. This sequence also showed a DR6w19 binding information on HLA-DRB1*1302 (DR6w19) of 0.0108. With KAYDTEVIINV, the “A*0201 (binding information)” value with HLA-A*0201 (setting [2]) amounted to 0.0013. For the sequence “KCQLKOEAMHGQVDC (KCQLKGEAMHGQVDC; HUMAN IMMUNO… VIRUS)”, the DR3 binding information in the test with HLA-DRB1*0301 (DR3) is on record as −0.0017. For KIEELRQIIL, the “A*0201 (binding information)” value with HLA-A*0201 (setting [2]) came out at 0.0001.

With KIEELRQIILL, the “A*0201 (binding information)” value in the test with HLA-A*0201 (setting [1]) turned out to be 0.0002. KLNWASQIYA [25.0161]: the IC50 at HLA-A*0202 was found to be 3910 nM; on HLA-A*0203, 400 nM; on HLA-A*0206 it was 6170 nM. For LLWKGEGAVV [1069.33], in that order: 632 nM, 25 nM and 771 nM. LVEICTEMEKECKIS: the DR3 binding information in the test with HLA-DRB1*0301 (DR3) was −0.0017. As for LVITFYWGL, the “A*0201 (HIV A02 Super Motif Peptides with Binding Information)” value in the test with HLA-A*0201 (binding value for purified HLA-A*0201 as printed in Table VIII, unit not given) is recorded as 0.0031. Turning to LYSAGIRKYL, the “A*0201 (binding information)” value in the test with HLA-A*0201 (setting [1]) is 0.0002. In the case of MLNTVGGIIQA, the “A*0201 binding (HIV A02 Super Motif Peptides with Binding Information)” value with HLA-A*0201 (unit not given) is on record as 0.0022. Also, the “A0301 (binding information)” value with HLA-A*0301 is on record as 0.0005. For MVEQMIIEDI, the “A*0201 (binding information)” value with HLA-A*0201 (setting [3]) came out at 0.0002. With MVEQMIIEDII, the “A*0201 (binding information)” value in the test with HLA-A*0201 (setting [2]) was determined as 0.0001. As for NVWAIIIACV, the “A*0201 (binding information)” value with HLA-A*0201 (setting [3]) is recorded as 0.0002.

For QMIIEDIISL, the “A*0201 (binding information)” value in the test with HLA-A*0201 (setting [3]) is reported as 0.0023. The same measure, in the same setting: the same measure for STVQCTIIGI: 0.001. VAKEIVASC had a DR7 binding information with HLA-DRB1*0701 (DR7) of 0.0015. For the sequence VIQDNSEIKV, in the test with HLA-A*0201 (HIV A02 supermotif peptides, Table VIII, binding value with unit not given), the “A*0201 binding” value was 0.0013. Turning to VIQGNSDIK, the DR7 binding information with HLA-DRB1*0701 (DR7) is listed as −0.0014. In addition, in the test with HLA-DRB1*0802 (DR8w2), the DR8w2 binding information is on record as −0.0009. The DR6w19 binding information with HLA-DRB1*1302 (DR6w19) came to 0.0447. For VLAEAMSQV, the “A*0201 binding (HIV A02 Super Motif Peptides with Binding Information)” value in the test with HLA-A*0201 (unit not given) is listed as 0.1100. This sequence also came in with a DR7 binding information with HLA-DRB1*0701 (DR7) of 0.0025. In the test with HLA-DRB1*0701 (DR7), VVEEKAFSP gave a DR7 binding information of 0.0003.

Take WAGIKQEFGIPYNPQ [Peptide 35.0131]: the IC50 on HLA-DRB1*0301 (DR3) is 300 nM. Turning to WATIIACVPT, the “A*0201 (binding information)” value with HLA-A*0201 (setting [3]) was determined as 0.0002.

For the origin of these results see patent US20050271676A1, “Inducing cellular immune responses to human immunodeficiency virus-1 using peptide and nucleic acid compositions” (Epimmune Inc., priority 1993, published 2005).
